The subject of the series is MS2 coat protein. The experiment in a line: apparent KD of MS2 coat protein; designed switch direction (-1 OFF switch, 1 ON switch): -1; higher = weaker reporter binding. Summed up:
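Apparent KD, taken as the median over clusters for each design, was obtained by curve-fitting normalised cluster fluorescence. Designed RNA switches had been transcribed on Illumina chips by stalled E. coli RNA polymerase and titrated with SNAP-549-labelled MS2 coat protein, doubling from 0.7 or 1.5 nM to 3 µM.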

Where [1] appears, read: input ligand: microRNA oligo, concentration not stated.
The mark [2] stands for this setting: Eterna round: R95, input ligand: microRNA oligo, concentration not stated.
The mark [3] stands for this setting: Eterna round: R95, input ligand: FMN 200 uM.
The mark [4] stands for this setting: Eterna round: R95, input ligand: none.

As to “CGUGGCCGGUGAGGAUAUUGAUGACAUGAGGAUCACCCAUGUGUAUCCUCUCGAAAUACCGUGAUCAAGAAGGCAUGGUGCCAC [Ritibe] (Eterna round: R96, puzzle: Exclusion NG 2)”, the “apparent KD of MS2 coat protein” value (input ligand: FMN 200 uM) is 68.5 nM, the “apparent KD of MS2 coat protein” value under setting [1] was 12 nM and the “apparent KD of MS2 coat protein” value (input ligand: none) amounted to 14 nM.

As to “AAACCGCAAGGAUAUUGUGGCGCUGACAUGAGGAUCACCCAUGUGGUGCUAGUCCCGCUGCGAGAAGGUGUGUAAA [Enesedrave] (puzzle: Exclusion 5)”, the “apparent KD of MS2 coat protein” value under setting [2] stood at 12.3 nM.

Turning to “CUCAUGUCAGGAUAUCAGGCAGGAAGCUGCCAAAAGUGGGAUGAGAAGGGACAUGAGGAUCACCCAUGUAAAUA [Mazasoti] (Eterna round: R97, puzzle: Exclusion 4)”, the “apparent KD of MS2 coat protein” value is, setting by setting: (input ligand: FMN 200 uM) 355 nM; (input ligand: none) 218 nM.

For the sequence “UAUUUACAUGAGGAUCACCCAUGUCAGGAUAUGCGUCUAUCGUCGAAAGACGAUAGCCGCAGAAGGGACAAUAU [LRO-Excl01-21 mod derived from EliFisker 4.24] (Eterna round: R97, puzzle: Exclusion 1)”, the “apparent KD of MS2 coat protein” value (input ligand: FMN 200 uM) stood at 87.3 nM and the “apparent KD of MS2 coat protein” value (input ligand: none) is 58.1 nM.

In the case of “GAAACGCGAGGAUAUACAGACGAGUCCAUUACGUGUCUCGGACUUGAGGAUCACCCAAGUAGAAGGCGUCUCAG [salish99_ex2_r4_631] (Eterna round: R97, puzzle: Exclusion 2)”, the “apparent KD of MS2 coat protein” value is, setting by setting: (input ligand: FMN 200 uM) 24.8 nM; (input ligand: none) 27.6 nM.

Turning to “UAUUAGCAAGUAAGAUCCCACAUGAGGAUCACCCAUGUGCUCGUCUUAUAAGGUACUGUGACGAAAGUCACGGUACC [Sensor 3, v1 - 88] (Eterna round: R96, puzzle: Sensor v3, turn-off variant 1)”, the “apparent KD of MS2 coat protein” value (input ligand: FMN 200 uM) is 16.7 nM, the “apparent KD of MS2 coat protein” value under setting [1] amounted to 313 nM and the “apparent KD of MS2 coat protein” value (input ligand: none) was found to be 18.1 nM.

“GCGGACAAGAUGGCGACAUCAGAGACAUGAGGAUCACCCAUGUAGGAUAUCGAUUCGAAACGAAUCGAGAAGGGCAUAGUCCGC [JL denovo 34] (Eterna round: R96, puzzle: Exclusion NG 3)”: the “apparent KD of MS2 coat protein” value by setting is: (input ligand: FMN 200 uM) 14.7 nM; under setting [1], 10.3 nM; (input ligand: none) 16.7 nM.

As for “GAUGAGGUAGGAUAUACGAUAAUAUAGGGUAGAUAUAUAACACAUGAGGAUCACCCAUGUAGAAGGACCAGUAC [Mat - Exclusion 2 - Mod of my Tesla design - D69] (puzzle: Exclusion 2)”, the “apparent KD of MS2 coat protein” value under setting [2] was 36.4 nM.

Consider “AGAUGGCGAGGAUAUACAUGAGGAUCACCCAUGUGAGAGAAUAAAGUGAGGAAGAAAAGUAGAAGGCGCUGUCA [Mat - Exclusion 3 - Mod of Salish D10] (puzzle: Exclusion 3)”, for which, under setting [2], the “apparent KD of MS2 coat protein” value amounted to 43.3 nM.

Regarding “AAAUAGUGAGGAUAUUAGUUGUACGUCAAUAGACGUAUAAGUGAGAAGGCACAUGAGGAUCACCCAUGUUCCUG [Omei Ex4 Mod of Mat's R95 mod of Omei v8] (Eterna round: R97, puzzle: Exclusion 4)”, the “apparent KD of MS2 coat protein” value was 34.4 nM (input ligand: FMN 200 uM) and 18.3 nM (input ligand: none).

With “GACAGUUCGGAGGAUAUCCAGAACUAAGAACAAGGAGAAGGCCGAACAUGAGGAUCACCCAUGUGUGUUCCCAU [Isdiorzaar] (puzzle: Exclusion 6)”, the “apparent KD of MS2 coat protein” value came to 19.4 nM under setting [3], 30.7 nM under setting [2] and 27 nM under setting [4].

In the case of “GAGAUACAUGAGGAUCACCCAUGUGAGGAUAUGAGUCAGUCACGGUGACGUGGCUGACUCAGAAGGCACAAAGG [Mat - Exclusion 1 - JL Mod - D35] (Eterna round: R97, puzzle: Exclusion 1)”, the “apparent KD of MS2 coat protein” value reads like this: (input ligand: FMN 200 uM) 88.9 nM; (input ligand: none) 150 nM.

Turning to “GAUGUUUAAGGAUAUACAAUGAAUGUAUGCCACAUGGAAAUACAUGAGGAUCACCCAUGUAGAAGGUAAGGGAU [Eternabot (L2) Solution 37] (Eterna round: R97, puzzle: Exclusion 2)”, the “apparent KD of MS2 coat protein” value turned out to be 27.1 nM (input ligand: FMN 200 uM) and 20.5 nM (input ligand: none).

“UUGUACAUAGGAUAUAGUUGUUUGUACAUGAGGAUCACCCAUGUUAUGUAUCUUUUGCUUCUAGAAGGAUGUUCUU [JR_E5_Sub005] (puzzle: Exclusion 5)”: under setting [2], the “apparent KD of MS2 coat protein” value turned out to be 32.2 nM.

Consider “AGCUGUGGCCGAGGAUAUCUGUUCCAUAUAACCGAAAUAUAAUCGGACAUGAGGAUCACCCAUGUAGAGAAGGCGGUCUCAGCA [Eli eng2 - 100] (Eterna round: R96, puzzle: Exclusion NG 2)”, for which the “apparent KD of MS2 coat protein” value under setting [1] was 18.8 nM.

Take “CAGACGGCCGUAGGAUAUGCAGCAAAGACGUGAGCAGAAGGACGAUACAUGAGGAUCACCCAUGUACGUGGGUAGUGCGCAUGC [Veustean] (Eterna round: R96, puzzle: Exclusion NG 1)”: the “apparent KD of MS2 coat protein” value came out at 19.8 nM (input ligand: FMN 200 uM), 14.4 nM under setting [1] and 20.8 nM (input ligand: none).

For “GGAAAGGUAGGAUAUACGAAGAAAAAGGGUAGAAUAAUAACACAUGAGGAUCACCCAUGUAGAAGGACCAAAGC [Mat - Exclusion 2 - Mod of my Tesla design - D13] (puzzle: Exclusion 2)”, the “apparent KD of MS2 coat protein” value under setting [3] was 49.5 nM, the “apparent KD of MS2 coat protein” value under setting [2] is 21 nM and the “apparent KD of MS2 coat protein” value under setting [4] came to 25.4 nM.

“UUUUUAUAUGAAGGAUAUACUUAACAUGAGGAUCACCCAUGUGGUGUUGUGAGUGAGUGAGUUUAGUAGAAGGUCAAGAAUUUU [JMF's solution 34] (Eterna round: R96, puzzle: Exclusion NG 2)”: the “apparent KD of MS2 coat protein” value reads like this: (input ligand: FMN 200 uM) 521 nM; under setting [1], 399 nM; (input ligand: none) 324 nM.

Regarding “CAGUCGAUAAGAUCAAUUAAUUAACAUGAGGAUCACCCAUGUGAGGAUAUCAGCUCGUGUAGAGCUGAGAAGGCACAACGACUG [ExNG3/17-A3] (Eterna round: R96, puzzle: Exclusion NG 3)”, the “apparent KD of MS2 coat protein” value (input ligand: FMN 200 uM) stood at 278 nM, the “apparent KD of MS2 coat protein” value under setting [1] was found to be 51.7 nM and the “apparent KD of MS2 coat protein” value (input ligand: none) worked out at 60.2 nM.

For the sequence “GUGAAGUAAGGAUAUACAUGAGGAUCACCCAUGUGUGGGAAGGUGAUGGGAGUAGGUAGUAGAAGGUACGAGGA [JR_Exclu3_Sub065] (puzzle: Exclusion 3)”, the “apparent KD of MS2 coat protein” value under setting [2] was 108 nM.

Turning to “UCCUCACUUGAGGAUCACCCAAGUCAGGAUAUUCACUGAACUGCGUAACAGUUCGGCCGAAGAAGGGAUUCGGG [Veatorma] (Eterna round: R97, puzzle: Exclusion 1)”, the “apparent KD of MS2 coat protein” value by setting is: (input ligand: FMN 200 uM) 259 nM; (input ligand: none) 75 nM.

As for “CGAAGAUGAGGAUAUGCUACAGACAUGUUCGCGCAGAAGUAACAUGAGGAUCACCCAUGUAGAAGGCAUCUUUU [Eternabot (L2) Solution 88] (Eterna round: R97, puzzle: Exclusion 2)”, the “apparent KD of MS2 coat protein” value reads like this: (input ligand: FMN 200 uM) 36.5 nM; (input ligand: none) 35.9 nM.

As to “ACUGGUCGAGGAUAUAUAUGACGUGCUUCGGCACGAAGAUCACAUGAGGAUCACCCAUGUAGAAGGCGACCAGU [E2/8-A2] (Eterna round: R97, puzzle: Exclusion 2)”, the “apparent KD of MS2 coat protein” value (input ligand: FMN 200 uM) came out at 731 nM and the “apparent KD of MS2 coat protein” value (input ligand: none) was found to be 130 nM.

The record behind these values is the supplement of paper PMC9170038.
